# Assay results: patent US20120077731A1 (Ablynx, published 2012)
# “And” between values parts separate entries of the source, which are not always exact repeats. Equal entries are not always repeated.
# T1: Human membrane IL-6R on cells (human, UniProt P08887 20-468)
# T1 sequence (looked up): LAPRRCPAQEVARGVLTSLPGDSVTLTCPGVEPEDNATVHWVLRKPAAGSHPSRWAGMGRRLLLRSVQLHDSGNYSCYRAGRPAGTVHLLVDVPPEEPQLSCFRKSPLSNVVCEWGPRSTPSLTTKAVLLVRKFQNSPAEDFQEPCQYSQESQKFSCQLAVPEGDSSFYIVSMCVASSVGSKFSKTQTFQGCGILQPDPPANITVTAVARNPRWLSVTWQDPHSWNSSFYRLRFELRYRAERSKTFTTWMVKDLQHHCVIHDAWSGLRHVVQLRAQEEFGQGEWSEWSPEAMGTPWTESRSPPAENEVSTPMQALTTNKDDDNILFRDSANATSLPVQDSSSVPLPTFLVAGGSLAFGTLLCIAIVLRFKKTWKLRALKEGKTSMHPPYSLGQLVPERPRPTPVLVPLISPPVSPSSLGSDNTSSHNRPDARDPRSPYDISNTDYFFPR
# T2: Cyno IL-6R (cynomolgus monkey, UniProt A0A2K5WN54 60-396)
# T2 construct: also called cynomolgus monkey IL-6R; recombinant cyno sIL-6R
# T2 sequence: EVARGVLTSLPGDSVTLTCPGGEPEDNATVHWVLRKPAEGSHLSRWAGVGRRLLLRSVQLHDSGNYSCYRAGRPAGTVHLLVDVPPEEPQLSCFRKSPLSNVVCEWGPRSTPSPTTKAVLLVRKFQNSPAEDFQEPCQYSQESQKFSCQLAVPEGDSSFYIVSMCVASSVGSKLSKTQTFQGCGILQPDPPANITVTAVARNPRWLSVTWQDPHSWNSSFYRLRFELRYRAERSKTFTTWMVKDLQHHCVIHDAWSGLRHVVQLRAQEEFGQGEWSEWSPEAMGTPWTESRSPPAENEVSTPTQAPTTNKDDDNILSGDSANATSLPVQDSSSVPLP
# T3: Mouse IL-6R (mouse, UniProt P22272 20-364, limits assumed)
# T3 construct: also called mouse sIL-6R
# T3 sequence (looked up): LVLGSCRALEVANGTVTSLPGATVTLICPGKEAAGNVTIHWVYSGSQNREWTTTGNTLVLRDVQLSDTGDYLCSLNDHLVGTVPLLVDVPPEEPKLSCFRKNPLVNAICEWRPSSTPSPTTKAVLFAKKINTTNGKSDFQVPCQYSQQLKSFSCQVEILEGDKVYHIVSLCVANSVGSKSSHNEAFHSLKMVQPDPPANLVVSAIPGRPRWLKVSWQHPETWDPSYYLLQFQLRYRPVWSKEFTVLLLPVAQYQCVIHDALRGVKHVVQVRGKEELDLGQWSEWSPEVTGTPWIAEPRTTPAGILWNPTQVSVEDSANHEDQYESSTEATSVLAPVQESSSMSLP
# T4: Human plasma sIL-6R (human, UniProt P08887 20-355, limits assumed)
# T4 construct: also called plasma-derived human IL-6R
# T4 sequence (looked up): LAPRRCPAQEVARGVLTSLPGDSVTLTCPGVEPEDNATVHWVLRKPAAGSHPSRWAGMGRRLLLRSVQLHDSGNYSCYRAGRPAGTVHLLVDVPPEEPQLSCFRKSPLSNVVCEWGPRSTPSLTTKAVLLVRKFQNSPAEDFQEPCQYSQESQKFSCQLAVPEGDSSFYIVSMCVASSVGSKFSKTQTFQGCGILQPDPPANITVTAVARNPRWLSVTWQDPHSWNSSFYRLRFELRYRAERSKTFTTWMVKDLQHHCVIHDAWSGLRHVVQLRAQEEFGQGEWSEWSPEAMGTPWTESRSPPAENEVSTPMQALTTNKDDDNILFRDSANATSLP
# T5: Cyno plasma sIL-6R (cynomolgus monkey, UniProt A0A2K5WN54 60-396)
# T5 construct: also called cynomolgus sIL-6R
# T5 sequence: T2 sequence
# B1: IL6R04 (VHH)
# VHH: EVQLVESGGGLVQAGGSLRLSCAASGFTFDDYDIGWFRQAPGKEREGVSGISSSDGNTYYADSVKGRFTISSDNAKNTVYLQMNSLKPEDTAVYYCAAEPPDSSWYLDGSPEFFKYWGQGTQVTVSS
# notes: also called PMP32C9; not shown: C-terminal c-myc and (His)6 tags
# B2: IL6R02 (VHH)
# VHH: EVQLVESGGGLVQAGGSLRLSCAASGRTFSSYDMGWYRQAPGKEREFVAVISRSGSSTYYADSVKGRFTISRDNAKNTVYLQMNSLKPEDTAIYYCKAEVVAGDYDYWGQGTQVTVSS
# notes: also called PMP30C11; not shown: C-terminal c-myc and (His)6 tags
# B3: Human soluble IL-6R (receptor, UniProt P08887 20-358, looked up)
# chain: LAPRRCPAQEVARGVLTSLPGDSVTLTCPGVEPEDNATVHWVLRKPAAGSHPSRWAGMGRRLLLRSVQLHDSGNYSCYRAGRPAGTVHLLVDVPPEEPQLSCFRKSPLSNVVCEWGPRSTPSLTTKAVLLVRKFQNSPAEDFQEPCQYSQESQKFSCQLAVPEGDSSFYIVSMCVASSVGSKFSKTQTFQGCGILQPDPPANITVTAVARNPRWLSVTWQDPHSWNSSFYRLRFELRYRAERSKTFTTWMVKDLQHHCVIHDAWSGLRHVVQLRAQEEFGQGEWSEWSPEAMGTPWTESRSPPAENEVSTPMQALTTNKDDDNILFRDSANATSLPVQD
# notes: Soluble recombinant form; biotinylated in some assays; also called hIL-6R; human IL-6R
# B4: Reference Fab (Fab, V domains shown)
# VH: QVQLQESGPGLVRPSQTLSLTCTVSGYSITSDHAWSWVRQPPGRGLEWIGYISYSGITTYNPSLKSRVTMLRDTSKNQFSLRLSSVTAADTAVYYCARSLARTTAMDYWGQGSLVTVSS
# VL: DIQMTQSPSSLSASVGDRVTITCRASQDISSYLNWYQQKPGKAPKLLIYYTSRLHSGVPSRFSGSGSGTDFTFTISSLQPEDIATYYCQQGNTLPYTFGQGTKVEIKR
# notes: Built from RVLa and RVHf of EP 0628639; expressed in E. coli periplasm
# Tests used:
# [1] = biological target: T1, Human membrane IL-6R on cells; experiment: cell-based or functional assay
# [2] = biological target: T1, Human membrane IL-6R on cells; experiment: cell-based or functional assay; remark: listed apart in the source
# [3] = biological target: T1, Human membrane IL-6R on cells; experiment: cell-based or functional assay; remark: listed apart in the source
# [4] = biological target: T1, Human membrane IL-6R on cells; experiment: cell-based or functional assay; remark: listed apart in the source
# [5] = biological target: B3; experiment: Biacore off-rate, periplasmic extract
# [6] = biological target: B3; experiment: Biacore, binding to IL-6R (parent value)
# [7] = biological target: B3; experiment: SPR Biacore 3000, IL-6R amine-coupled to CM5
# Experimental: (§1) Nanobodies were injected at 5 different concentrations between 1 and 50 nM. Flow rate was 45 μl/min in all experiments. Association and dissociation phase were 3 and 10 min, respectively. The chip was regenerated using Glycine/HCl pH 1.5.
# [8] = biological target: T2, Cyno IL-6R; experiment: SPR Biacore 3000, cyno IL-6R amine-coupled to CM5
# Experimental: Remaining reactive groups were inactivated. […] Each sample was injected for 4 min at a flow rate of 45 μl/min to allow for binding to chip-bound antigen. Next, binding buffer without Nanobody was sent over the chip at the same flow rate to allow for dissociation of bound Nanobody.
# [9] = biological target: B3; experiment: Alphascreen, inhibition of bio-IL-6 binding to IL-6R
# Experimental: (§2) Finally streptavidin donor beads were added and after 1 hour incubator the plate was read on the Envision microplate reader.
# [10] = biological target: B3; experiment: summary table C-13 of Nanobody characteristics, Kd on IL-6R
# Experimental: as §1
# [11] = biological target: B3; experiment: inhibition of the IL-6/IL-6R interaction, summary table C-13
# Experimental: as §2
# [12] = biological target: B3; experiment: competition for IL-6R, competitor reference Fab, summary table C-13
# [13] = biological target: B3; experiment: Alphascreen, 100 nM Nanobody, 0.4 nM bio-IL-6R; competitor: reference Fab
# [14] = biological target: T3, Mouse IL-6R; experiment: ELISA: plate coated with 1 µg/ml mouse IL-6R, 500 nM Nanobody, anti-myc + anti-mouse-HRP
# Experimental: Detection was performed with anti-myc and anti-mouse-HRP as first and second antibody respectively.
# [15] = biological target: T4, Human plasma sIL-6R; experiment: plasma potency ELISA in human plasma at the EC50 of IL-6 (50 ng/mL); blocked ligand IL-6
# [16] = biological target: T4, Human plasma sIL-6R; experiment: plasma potency ELISA in human plasma at the EC95 of IL-6 (885 ng/mL); blocked ligand IL-6
# [17] = biological target: B3; experiment: Alphascreen IL-6/IL-6R competition with purified Nanobody; row EC50 of the table, axis [inhibitor], M; blocked ligand IL-6
# [18] = biological target: B3; experiment: Alphascreen IL-6/IL-6R competition (IL-6R 0.3 nM, bio-IL-6 3 nM); row EC50 of the fit table, axis [competitor], M; blocked ligand IL-6
# [19] = biological target: B3; experiment: SPR Biacore 3000, IL-6R amine-coupled to CM5; second koff of IL6R02; the one that fits kon and Kd
# Experimental: as §1
# [20] = biological target: T6, PMP20A11; experiment: competitive binding ELISA, 0.05 nM IL6R20A11 pre-incubated with sIL-6R, free Nanobody captured on sIL-6R
# T6 construct: also called IL6R20A11; IL6R300; not shown: c-myc and (His)6 tags
# [21] = biological target: T6, PMP20A11; experiment: competition ELISA: IL6R20A11 (0.4 nM) pre-incubated with a series of recombinant sIL-6R; free IL6R20A11 captured on biotinylated human sIL-6R on neutravidin
# [22] = biological target: T1, Human membrane IL-6R on cells; experiment: cell-based or functional assay; remark: listed apart in the source
# [23] = biological target: B3; experiment: Alphascreen, inhibition of bio-IL-6 binding to IL-6R; remark: listed apart in the source
# Experimental: as §2
# [24] = biological target: T4, Human plasma sIL-6R; experiment: plasma potency ELISA, human plasma, IL-6 at EC50 (50 ng/mL)
# [25] = biological target: T4, Human plasma sIL-6R; experiment: plasma potency ELISA, human plasma, IL-6 at EC95 (885 ng/mL)
# [26] = biological target: T3, Mouse IL-6R; experiment: ELISA: plate coated with 1 µg/ml mouse IL-6R; concentration and detection of this control not told
# [27] = biological target: T5, Cyno plasma sIL-6R; experiment: plasma potency ELISA, cyno plasma + human IL-6 50 ng/mL; sIL-6R captured on BN-12, bound IL-6 detected; blocked ligand IL-6
# [28] = biological target: T4, Human plasma sIL-6R; experiment: plasma potency ELISA, human plasma + human IL-6 50 ng/mL; sIL-6R captured on BN-12, bound IL-6 detected; blocked ligand IL-6
"IC50 (nM), XG-1 cell proliferation [1] [nM]","IC50 (nM), TF1 cell proliferation [2] [nM]",IC50 (nM) XG-1 [3] [nM],koff [5] [s⁻¹],Kd [7] [nM],koff [7],kon [7] [M⁻¹ s⁻¹],IC50 [9] [nM],Kd [10] [nM],IC50 [11] [nM],Ref Fab competition (%) [12] [%],Residual reference-Fab binding to IL-6R (%) [13] [%],binding result [14],Binder,further results
0.1,0.4,0.1,0.00015,0.3,9.42e-05 s⁻¹ and 0.00015 s⁻¹,365000,0.093,0.3,0.09,50,50,no binding (tested: 500 nM),B1,"IC50 (nM) + HSA, XG-1 cell proliferation [1]: 0.1 nM; IC50 values (nM), XG-1 assay [4]: 0.1 nM; Kd [6]: 0.3 nM; Kd [8]: 171 nM; koff [8]: 0.01 s⁻¹; kon [8]: 58600 M⁻¹ s⁻¹; IC50 (read off the curve) [15]: ~0.2 nM; IC50 (read off the curve) [16]: ~0.4 nM; IC50 [17]: 0.0568 nM; IC50 [18]: 0.18 nM"
31,94.7,31,0.00294,5.9,0.00294 s⁻¹,840000,1.69,5.9,1.69,86,86,no binding (tested: 500 nM),B2,koff [19]: 0.00495 s⁻¹
,,,,,,,,,,,,,B3,IC50 [20]: 0.03 nM; IC50 (read off the curve) [21]: ~1 ng/mL
6,9.2,,,,,,,,,,,,B4,"IC50 (nM), TF-1 proliferation at 100 IU/mL IL-6 [22]: 6.26 nM; IC50 [23]: 0.592 nM; IC50 [24]: 0.55 nM; IC50 [25]: 8.47 nM; binding result [26]: no binding (tested: not given); IC50 (read off the curve) [27]: ~0.1 nM; IC50 (read off the curve) [28]: ~0.3 nM"
